# Measured values reported in the supplement of paper PMC7877785.
# ± gives the uncertainty stated by the source.
# Test: self-splicing fitness, log relative to wild type (ln ratio); higher = more splicing; Tetrahymena group I intron in knt gene, E. coli kanamycin selection, DiMSum; sequences stand for … in CUCUCU…GGAGGGAAAAGUUAUCAGGCAUGCACCUGGUAGCUAGUCUUUAAACCAAUAGAUUGCAUCGGUUUAAAAGGCAAGACCGUCAAAUUGCGGGAAAGGGGUCAACAGCCGUUCAGUACCAAGUCUCAGGGGAAACUUUGAGAUGGCCUUGCAAAGGGUAUGGUAAUAAGCUGACGGACAUGGUCCUAACCACGCAGCCAAGUCCUAAGUCAACAGAUCUUCUGUUGAUAUGGAUGCAGUUCACAGACUAAAUGUCGGUCGGGGAAGAUGUAUUCUUCUCAUAAGAUAUAGUCGGACCUCUCCUUAAUGGGAGCUAGCGGAUGAAGUGAUGCAACACUGGAGCCGCUGGGAACUAAUUUGUAUGCGAAAGUAUAUUGAUUAGUUUUGGAGUACUCGUGGUCG
# Outline: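 Pooled colonies went to amplicon sequencing on an Illumina HiSeq 2500 after six replicate transformations. The plates were LB agar with 100 μg/mL carbenicillin, 50 μM IPTG and 0.2% rhamnose, with or without 25 μg/mL kanamycin, incubated overnight at 37°C or 30°C. The E. coli BL21(DE3) library had all eight P1ex-region intron nucleotides randomised, the intron placed in the knt kanamycin-resistance gene on pET-22b(+). DiMSum fitness is the error-weighted combination of replicate fold changes, kanamycin against none, normalised to wild type.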
Sequence,self-splicing fitness (ln) (30 °C),self-splicing fitness (ln) (37 °C)
AAAGAGCAAUAUUACGGCUG,-2.36 ± 0.1,-1.12 ± 0.12
GAGCAGCAAUAUUACGACGC,0.00947 ± 0.079,0.534 ± 0.1
ACCAAGCAAUAUUACGCGGG,-3.38 ± 0.11,-2.18 ± 0.1
GAGUAGCAAUAUUACGGCGA,-0.645 ± 0.16,-0.441 ± 0.2
AGAAAGCAAUAUUACGUACG,-1.26 ± 0.12,0.0255 ± 0.13
CAGAAGCAAUAUUACGAACA,-1.81 ± 0.18,-0.783 ± 0.17
ACGCAGCAAUAUUACGUUCA,-1.96 ± 0.11,-0.844 ± 0.094
AAUUAGCAAUAUUACGUAAC,-1.98 ± 0.16,-1.55 ± 0.29
UGAUAGCAAUAUUACGUUUC,-2.72 ± 0.22,-2.29 ± 0.41
AACUAGCAAUAUUACGGCCC,-1.6 ± 0.17,-0.325 ± 0.24
UGGGAGCAAUAUUACGUCAC,-1.96 ± 0.36,
AGCUAGCAAUAUUACGAUAU,-0.87 ± 0.17,0.27 ± 0.11
CCUUAGCAAUAUUACGCCAU,-2.87 ± 0.48,-1.57 ± 0.29
AAAGAGCAAUAUUACGAGAU,-3.95 ± 0.17,-3.28 ± 0.22
UGUGAGCAAUAUUACGAAUU,-4.64 ± 0.46,-1.8 ± 0.45
GAGGAGCAAUAUUACGAAAG,,-2.01 ± 0.33
GCCGAGCAAUAUUACGAGAU,-2.65 ± 0.19,-1.66 ± 0.2
AUACAGCAAUAUUACGGCCA,-0.834 ± 0.11,-0.783 ± 0.1
AGGCAGCAAUAUUACGUCGA,-0.305 ± 0.043,-0.0427 ± 0.055
AUGGAGCAAUAUUACGGAUC,-2.51 ± 0.25,-2.57 ± 0.36
ACUAAGCAAUAUUACGGUGU,-3.49 ± 0.15,-2.23 ± 0.12
AAACAGCAAUAUUACGUGUC,-4.08 ± 0.15,-2.78 ± 0.13
UGUGAGCAAUAUUACGUGGG,-3.67 ± 0.25,-2.34 ± 0.15
CCUCAGCAAUAUUACGGAGC,-4.55 ± 0.3,-2.91 ± 0.19
GUUGAGCAAUAUUACGGCGA,-2.81 ± 0.23,-2.44 ± 0.2

Sequence,self-splicing fitness (ln) (30 °C),self-splicing fitness (ln) (37 °C)
AUGGAGCAAUAUUACGGGCU,,-1.55 ± 0.41
AUACAGCAAUAUUACGAAGU,-3.31 ± 0.12,-1.22 ± 0.11
AACAAGCAAUAUUACGCAAG,-1.88 ± 0.084,-0.493 ± 0.086
AGAGAGCAAUAUUACGUGGG,-3.01 ± 0.17,-2.71 ± 0.28
UUACAGCAAUAUUACGGUUG,-0.8 ± 0.054,-0.338 ± 0.07
CUGCAGCAAUAUUACGGCAC,-3.13 ± 0.14,-0.857 ± 0.12
GAUCAGCAAUAUUACGCAAC,-1.5 ± 0.13,-0.455 ± 0.17
UGUGAGCAAUAUUACGCCGA,-3.5 ± 0.39,-1.77 ± 0.27
CUCAAGCAAUAUUACGAUGU,-2.6 ± 0.11,-1.21 ± 0.13
AGUGAGCAAUAUUACGGUGG,-3.06 ± 0.19,-2.69 ± 0.3
CCCAAGCAAUAUUACGGACG,-2.8 ± 0.13,-2.17 ± 0.11
CGCCAGCAAUAUUACGUCCC,,-2.37 ± 0.49
CAUAAGCAAUAUUACGAGAA,,-2.27 ± 0.3
GUUAAGCAAUAUUACGAAAC,-3 ± 0.48,-2.83 ± 0.48
CCUUAGCAAUAUUACGGCAA,-3.57 ± 0.33,-2.54 ± 0.24
GGAGAGCAAUAUUACGAUUC,-1.58 ± 0.29,-0.911 ± 0.26
CGAGAGCAAUAUUACGUUGU,,-1.57 ± 0.19
AUCAAGCAAUAUUACGGAUC,-3.29 ± 0.25,-1.91 ± 0.21
UCGCAGCAAUAUUACGCGCG,-3.58 ± 0.29,-2.08 ± 0.27
GCUGAGCAAUAUUACGGCAC,-0.439 ± 0.24,-1.28 ± 0.39
UAGUAGCAAUAUUACGCGCC,-2.32 ± 0.28,-0.984 ± 0.23
CCACAGCAAUAUUACGAGUA,-3.68 ± 0.2,-2.31 ± 0.19
CGAGAGCAAUAUUACGACCA,-2.78 ± 0.37,
GAAAAGCAAUAUUACGCAGU,-3.38 ± 0.18,-1.69 ± 0.15
UCAGAGCAAUAUUACGCUGU,-2.98 ± 0.26,

Sequence,self-splicing fitness (ln) (30 °C),self-splicing fitness (ln) (37 °C)
UUAAAGCAAUAUUACGACGG,-0.186 ± 0.091,0.75 ± 0.15
GGAAAGCAAUAUUACGGUCA,-0.418 ± 0.09,0.154 ± 0.1
UGCAAGCAAUAUUACGAUGG,-1.25 ± 0.1,-0.29 ± 0.12
UGUGAGCAAUAUUACGUAAU,,-2.2 ± 0.27
UCAGAGCAAUAUUACGCGCC,-2.37 ± 0.46,
UGUAAGCAAUAUUACGGACU,-0.351 ± 0.094,0.0199 ± 0.11
UAUCAGCAAUAUUACGACGG,-0.775 ± 0.098,0.242 ± 0.13
CUAGAGCAAUAUUACGUAUC,,-1.7 ± 0.26
CCGUAGCAAUAUUACGAUCG,0.0338 ± 0.098,0.353 ± 0.12
CUCCAGCAAUAUUACGGAAC,-4.55 ± 0.46,-2.33 ± 0.21
UGUCAGCAAUAUUACGCCGG,-2.61 ± 0.5,-0.725 ± 0.36
AUAUAGCAAUAUUACGUUGC,-2.4 ± 0.19,-1.25 ± 0.23
GGAAAGCAAUAUUACGGAAG,-4.32 ± 0.22,-1.93 ± 0.15
UCGAAGCAAUAUUACGAUAU,-2.63 ± 0.31,-1.52 ± 0.32
GGGCAGCAAUAUUACGAUGA,-1.36 ± 0.12,-0.649 ± 0.11
CCGAAGCAAUAUUACGAAGA,-3.27 ± 0.39,
CCUGAGCAAUAUUACGAAUG,-2.21 ± 0.18,-1.7 ± 0.19
GUGUAGCAAUAUUACGGUAA,-2.48 ± 0.14,-1.49 ± 0.11
CUAUAGCAAUAUUACGUAUG,-1.52 ± 0.085,-0.647 ± 0.099
CUCAAGCAAUAUUACGUGUC,-3.37 ± 0.11,-1.65 ± 0.1
UGUAAGCAAUAUUACGAGAC,-3.68 ± 0.43,-0.552 ± 0.26
AAAUAGCAAUAUUACGACAG,-2.02 ± 0.13,-1.34 ± 0.16
CUGAAGCAAUAUUACGCUCU,-3.29 ± 0.25,-3.3 ± 0.47
UGCGAGCAAUAUUACGGCCG,-1 ± 0.38,
CCAAAGCAAUAUUACGUUCC,-3.37 ± 0.24,-2.93 ± 0.32

Sequence,self-splicing fitness (ln) (30 °C),self-splicing fitness (ln) (37 °C)
AUGCAGCAAUAUUACGACGG,-1.74 ± 0.11,-1.41 ± 0.14
UGCUAGCAAUAUUACGGGAG,-2.68 ± 0.17,-1.65 ± 0.13
GACCAGCAAUAUUACGCUUC,-2.01 ± 0.1,-1.66 ± 0.14
GUGGAGCAAUAUUACGCCAA,-2.82 ± 0.33,-0.536 ± 0.33
UCGUAGCAAUAUUACGUCCA,-0.914 ± 0.16,-0.15 ± 0.17
AGCGAGCAAUAUUACGUGUG,-3.86 ± 0.22,-2.88 ± 0.17
AUGCAGCAAUAUUACGGCUU,-0.164 ± 0.072,0.254 ± 0.085
CCAUAGCAAUAUUACGACAG,-1.16 ± 0.092,-0.413 ± 0.1
AGAUAGCAAUAUUACGCUAU,-3.58 ± 0.4,-3.47 ± 0.24
CGUCAGCAAUAUUACGCGAC,-2.57 ± 0.49,
AUGCAGCAAUAUUACGUUUA,-2.04 ± 0.095,-1.21 ± 0.089
UUCCAGCAAUAUUACGCUAA,-0.0987 ± 0.083,-0.376 ± 0.084
AAACAGCAAUAUUACGUAUC,-3.98 ± 0.17,-1.97 ± 0.12
GAGUAGCAAUAUUACGAAAC,-2.82 ± 0.32,-2.56 ± 0.27
CAACAGCAAUAUUACGGACU,-2.52 ± 0.11,-1.33 ± 0.14
UCUAAGCAAUAUUACGUAGG,-1.65 ± 0.093,-1.24 ± 0.15
AUCAAGCAAUAUUACGAUCG,-3.37 ± 0.2,-3.55 ± 0.28
UGUAAGCAAUAUUACGGCCG,-0.494 ± 0.17,-0.516 ± 0.25
GGCAAGCAAUAUUACGCACU,-0.587 ± 0.06,-0.483 ± 0.075
CGAGAGCAAUAUUACGCUGA,-2.91 ± 0.44,-0.634 ± 0.27
CUGGAGCAAUAUUACGCAAA,-3.87 ± 0.42,
UUACAGCAAUAUUACGGGAG,-1.23 ± 0.071,-0.858 ± 0.077
GGCCAGCAAUAUUACGUCGU,-1.18 ± 0.061,-0.452 ± 0.072
CGAAAGCAAUAUUACGUGCG,-1.22 ± 0.076,-0.524 ± 0.097
AUGUAGCAAUAUUACGCUCU,-1.95 ± 0.13,-0.655 ± 0.17
